Test results from publication PMC9083094.
Where “and” joins values, the source holds several entries; their conditions need not be identical. Equal entries are not always repeated.

Columns and labels:
[1] = biological target: Aβ_(C18C33), mutant Aβ42 peptide containing an intramolecular disulfide bond; experiment: SDS-PAGE
[2] = biological target: Aβ_(C18C33), mutant Aβ42 peptide containing an intramolecular disulfide bond; experiment: SDS-PAGE; remark: listed apart in the source
[3] = biological target: Aβ_(C18C33), mutant Aβ42 peptide containing an intramolecular disulfide bond; experiment: native MS
[4] = biological target: Aβ_(C18C33), mutant Aβ42 peptide containing an intramolecular disulfide bond; experiment: native MS; remark: listed apart in the source
[5] = biological target: Aβ_(C18C33), mutant Aβ42 peptide containing an intramolecular disulfide bond; experiment: SEC-MS
[6] = biological target: Aβ_(C18C33), mutant Aβ42 peptide containing an intramolecular disulfide bond; experiment: native MS; remark: listed apart in the source
[7] = biological target: Aβ_(C24C29), mutant Aβ42 peptide with an intramolecular disulfide bond; experiment: SDS-PAGE

stoichiometry N [1]	stoichiometry N [2]	stoichiometry N [3]	stoichiometry N [4]	stoichiometry N [5]	stoichiometry N [6]	stoichiometry N [7]	Substance
2	2	4	4	2	2 and 4	–	Aβ_(C18C33), mutant Aβ42 peptide containing an intramolecular disulfide bond
–	–	–	–	–	–	3 and 4	Aβ_(C24C29), mutant Aβ42 peptide with an intramolecular disulfide bond
